This series in a line: amyloid nucleation score (Sup35N fusion, yeast selection) (log enrichment); library NNK2; higher = more nucleation; inactive = no reads after selection. An outline of the steps:
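Plasmid inserts were Illumina-sequenced at input and output from psi-negative yeast expressing Sup35N fused to peptides of 20 random codons. The yeast were induced with 100 μM copper sulfate for 24 hours and grown 7 days at 30°C on medium lacking adenine and uracil, and sequences with under 100 input reads were excluded. Nucleation score is the DiMSum log enrichment of output over input reads, centred on the mode score of non-aggregating sequences.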

In the supplement of paper PMC12042874 one finds amyloid nucleation score data, which are given here for 140 substances.

± gives the uncertainty stated by the source.

In the case of VMHFDLQICDRVHSRKSAPR, the amyloid nucleation score was 8.523 ± 0.038.
LTGLFAGLKGKCLFTVNRGI: the amyloid nucleation score was -0.318 ± 0.44.
Under IGKRASSPYYRPSIVVYSWD stands -0.302 ± 0.32.
Under LYIIMMICIQSLFRYRGIKG stands -0.975 ± 0.78.
Under VLINEHYGYRFFCFNCADGK stands 8.228 ± 0.036; under SYPACRNRAVVRARGVVNLW, 2.7 ± 0.18; under LNCYFGHRDPIFSRMNICDY, -0.469 ± 1.1.
Turning to RMDVSYLAFVWSHN, the amyloid nucleation score came out at 3.5 ± 0.056.
Substance RADTRDSGVVEACKGWSHEE displayed an amyloid nucleation score of 0.451 ± 0.34.
Under WGVFWLPH stands -0.807 ± 0.56; under HTSVLNMTGSGLIPN, -1.82 ± 0.78; under KMCLIRYMHNPKVGIRLGRS, 0.102 ± 0.33.
Under LVFTCGWSDTRE stands 5.08 ± 0.089; under DSSRAVLGVIRYSSEGSL, -0.34 ± 0.41; under LRSWEGLSQAWRPCCVILHN, 0.48 ± 0.34.
For the substance VCNFSTLELVVEDGSKAYRG, the amyloid nucleation score is -0.079 ± 0.3.
As for WCWLEYCCTIDSLIFLFEN, the amyloid nucleation score is 4.09 ± 0.12.
Consider TRIRWWF, for which the amyloid nucleation score stood at 4.21 ± 0.067.
Under YIYETTLCYNTIPGL stands -0.848 ± 0.29; under TMYFILLCMLLRGFSSGPPP, -1.04 ± 0.78.
Under MVYPRYVSDTKQSRLLAGRE stands 0.604 ± 0.57; under WIVRFSGCCDVGWTSGVRSY, 6.17 ± 0.075; under LRVQGGWL, 1.49 ± 0.34.
Under LKNNNQETGIEFYIFREHRD stands 4.22 ± 0.047.
Substance VMHSYDYVTMGFRSRTDPFR came in with an amyloid nucleation score of 3.05 ± 0.14.
Under PWVNRCKELCMFVLGVDRGG stands -0.588 ± 1.1; under LTEDTMFG, -0.573 ± 0.76; under WALYVGGANRFFMCQWVNLG, 2.26 ± 0.13.
Under NRLDNFRHQTEGKRRV stands -0.841 ± 1.1.
Under LFVIWNTCVNYFLDVLSGHN stands 3.86 ± 0.12.
As for IKYLKCIVMCRFFVHWSSIV, the amyloid nucleation score was -1.06 ± 0.76.
Under GVIRILWDECRTSDYFGCGT stands 0.047 ± 0.26; under MLDYFGLWSWARSSNYLEFK, -1.09 ± 0.31; under SIYSSGNALTYQRIHNWVGI, -0.953 ± 0.44.
Under NTLVMRWCRGCQWKEQLASN stands 1.1 ± 0.41; under LCPLTHFFVFEVYFSDPYRE, 5.69 ± 0.075; under NDMFLSYLHSPWYNVLCDFI, -1.29 ± 0.49.
Under DIIVVQCIVSVMCTMRASRS stands 5.897 ± 0.051; under AMTVSWWCCLMYVDMG, 10.59 ± 0.037; under TRFCCVATHFDYNLIIFYYP, 0.554 ± 0.23.
In turn, LIYITVGRLQHGALCFLGKC gave an amyloid nucleation score of 0.148 ± 1.
Under TVRASCFRVSVRKEKKIVVA stands 0.233 ± 0.77; under YNPLLIV, 0.082 ± 0.56; under IPYYIDKKQSKMCNGFWS, 0.572 ± 0.57.
LGLLCTVEIHYLGNMYIHRP came in with an amyloid nucleation score of 7.043 ± 0.045.
Under TIIRMKLS stands 1.39 ± 0.39; under TSDPEFV, -0.627 ± 0.49; under KFSKIRFAFIIFGSKPYMRV, -0.875 ± 0.49.
Under FVLSMVLSIILLSLSHHLFG stands 2.33 ± 0.2.
As for GNRDSLNMFVCDRILRCPVQ, the amyloid nucleation score is -0.273 ± 0.33.
Under KMKFKKENFC stands -0.858 ± 1; under GWTKLFGVHDSGIGCPNGVL, “inactive”.
Under MEVADC stands 0.591 ± 0.35; under SYWGQIGRSHTSCLCPSDQV, “inactive”; under TEIRLNVSLRSRRGPCPTRL, 6.06 ± 0.06.
Under VWVPQSVIRSLHLPSN stands -1.01 ± 1.1; under SMTTH, -0.777 ± 0.36; under FGSVSSWELPRP, 0.197 ± 0.63.
LSRWKDRSRGWRGDAAPRIR yielded an amyloid nucleation score of 0.539 ± 0.56.
Under TDYGLVALSQWKRVCLIQSG stands 0.176 ± 0.22.
Under RRALIWIAIHECIRTTPHLL stands -0.434 ± 0.76; under RFRRSVFMLMHGWRSTVFIV, 1.07 ± 0.34; under WVCLYDVVICRIRLSDRENS, 0.713 ± 0.74.
Under CSMMEPTMY stands 0.269 ± 0.41; under YGSSGK, -0.362 ± 0.38.
Turning to PDFYMYPSLNDKSDLI, the amyloid nucleation score was -0.78 ± 0.76.
Under FIGVSGLRCRGVMCSCYASY stands 1.53 ± 0.17; under FIIVK, -1.32 ± 0.41; under ECDYRTLSLNMVLNYCRKGG, 5.955 ± 0.046.
Under FVRASGHTTCYSCQLSTPGP stands 1.34 ± 0.15.
Under YFRAYWTCSEC stands “inactive”; under CIGSLNVAVW, 0.152 ± 0.21.
Take EGMSI: the amyloid nucleation score result is “inactive”.
Under RAVEMVYCKLRMSQDGHLRW stands 5.482 ± 0.048; under SGCTGFCRRGPVRCWGSCLL, “inactive”; under LLFMSSNIFDMCREFDRC, “inactive”.
Under FFFKSSLLR stands 0.241 ± 0.8; under NFIKKGCGKGNLDLFSLRDV, “inactive”; under TGYAWGG, 2.16 ± 0.22.
Under YLSAAVKTEVV stands 0.619 ± 0.37.
For the substance PDFRSP, the amyloid nucleation score is -0.451 ± 0.41.
Under MCWIVTFTRLCWLMFNSERC stands “inactive”; under DLAELISVKYLVTVSLWAGS, 0.621 ± 0.57.
Under FVRGDSGFTLNAAR stands -0.288 ± 0.3; under ISECR, -0.432 ± 1.1; under SSRNASGYAWRVSNCVCVWG, 7.9 ± 0.079.
Under VGLSPSSASTHLRN stands 1.07 ± 0.33; under SLSCSESGVKNRKVVELGWM, 0.432 ± 0.32.
Substance GIVVFINEMLTNTNPGKS had an amyloid nucleation score of 6.954 ± 0.039.
Under LPFMECC stands -0.696 ± 1; under NYTGQTFVMTGLISFNPQIG, 5.79 ± 0.074.
Under CTTLLALHMWISCVIGWSR stands 0.172 ± 0.39; under DSSIDRWF, 1.15 ± 0.22.
Under SNYVFTNRGLIFRDFRVSDE stands 5.56 ± 0.086; under FKSLLCLFAWRLVTFHVGE, -0.73 ± 1.1; under ESYIWMLRGHMLCKDEVMNV, -0.611 ± 0.74.
LFERFWFIL: the amyloid nucleation score was 0.187 ± 0.23.
SFTAHTSIHASNLYTDLLLC showed an amyloid nucleation score of 3.41 ± 0.063.
Under DLFGCFVNCRSRL stands 2.89 ± 0.092; under GVTPYCKRHV, -1.14 ± 0.78; under LYRRFRQRCIRERERLVHGL, 0.01 ± 0.38.
Under IYKILLLLAGRRGFDCLVFS stands -0.926 ± 0.74; under FSIDVSSYRMWLPVSDLYFI, -0.545 ± 0.76; under YANDFLRLVHVWFREVIIKL, -0.398 ± 1.
Under ALSFYNY stands -0.282 ± 0.76; under DDDRPDEAYEYDVSGF, -1.03 ± 0.54.
Substance CAGPPLLAKVGWIIMYSLVV had an amyloid nucleation score of 0.258 ± 0.55.
With RGVCLNNLMWGTLGTRKALL, the amyloid nucleation score was -0.797 ± 1.
With VRNSCSTLLYASVESVFWI, the amyloid nucleation score came out at 3.28 ± 0.048.
Under NWVWLKWRITQYFIHSASSS stands 1.43 ± 0.19.
Under IYNMRHSMTMFHCYGFLRRV stands -0.976 ± 0.63; under MVWAQSTASMVLDLVFIAPS, 1.75 ± 0.29.
In the case of VPDGHWSTHRRFSYMQVLNW, the amyloid nucleation score is -0.441 ± 1.1.
In the case of CVGIFDNDICVEFMMALRLD, the amyloid nucleation score was -1.05 ± 0.64.
Take FNVSVGMMNFRMERLGI: the amyloid nucleation score is -0.819 ± 0.42.
Take PCACCYGSLAYAAVHSNWLG: the amyloid nucleation score was determined as 8.495 ± 0.07.
Under RAMVPHHNADGCGLLQDTQ stands 1.14 ± 0.38; under TYLLLWSCGWLSWRVICALR, 4.66 ± 0.089; under NRNPYILGYLRPPEVDYWWW, -0.627 ± 1.1.
Under TRMHESIWV stands 1.73 ± 0.077.
Under MVLLLQASSI stands -0.354 ± 0.54; under MSLILRSPLKTWLPLAHTQG, 0.187 ± 0.42; under SIHDQLGHYVFIV, -1.16 ± 0.62.
RVGDEFVGCRWVSRIANSHS came in with an amyloid nucleation score of 2.23 ± 0.14.
Under SREYDCYLWRNLVWNCWMNW stands 5.638 ± 0.048; under VLHKNTKMANTWVHNPTEVE, -0.328 ± 0.27; under VKRYGINGGFNYSSYCTAGI, “inactive”.
Under SSYTKMC stands -0.934 ± 0.78; under SFIHDWTNFHGSLGFDYGCD, 0.112 ± 1.1.
Under FVLMMDYEIIFLN stands 4.52 ± 0.071; under DTMDSAAFTLHCIVWGYPVG, “inactive”; under DGVCKFQELMSFPGKLYS, -0.447 ± 0.5.
For ALTFTGV, the amyloid nucleation score worked out at 0.286 ± 0.41.
Under HFRVYSWIQVK stands 0.337 ± 0.49; under FELLPTR, 3.3 ± 0.079.
For the substance VTDYYYLCKFKSRVP, the amyloid nucleation score was -0.799 ± 0.78.
In the case of VRYDGSKAFEVYMNQIENGS, the amyloid nucleation score was -0.905 ± 0.33.
Under HRTLFKGPSWLPKRRERAIL stands -0.097 ± 0.79; under IQKVVIVYSHDVYSDQ, 6.737 ± 0.048.
Under LYLMSHTGFLSNTHIRLAPR stands -0.291 ± 1.1.
